Source: article PMC4571291 (2015)

What was measured:
[1] = molecular target: T1, actin (UniProt P68135 1-377); assay: ITC; second site (KD2)
[2] = molecular target: T1, actin; assay: ITC; first site (KD1)
[3] = molecular target: T1, actin; assay: ITC

B1: TL2_(ABS2) (domain or fragment)
chain: VIKPTQYKPVPDEEPNSTDVEETLERIKNNDPKLEEVNLNNIRNIPIPTLKAYAEALKENSYVKKFSLANTHADDSAAMAIAEMLKVNEHITNVNVESNFITGKGILAIMRALQHNTVLTELRFHNQRHIMGSQVEMEIVKLLKENTTLLRLGYHFELPGPRMSMTSILTRNMDKQRQKRLQEQKQQE
Question: B1 was tested. Which Kd [1] did it give?
Answer: Its Kd is 600 nM.

Question: And the Kd [2]?
Answer: The Kd was 154 nM.

B2: TL1_(ABS2) (domain or fragment)
chain: VIKPTQYKPVPDEEPNSTDVEETLERIKNNDPKLEEVNLNNIRNIPIPTLKAYAEALKENSYVKKFALANTRADDHVAFAIAIMLKANKTITSLNLDSNHITGKGILAIFRALLQNNTLTELRFHNQRHICGGKTEMEIAKLLKENTTLLKLGYHFELAGPRMTVTNLLSRNMDKQRQKRLQEQRQAQ
Question: How did the Kd [1] turn out when B2 was run?
Answer: The Kd was 130 nM.

B3: Tmod1_(ABS1) (domain or fragment)
chain: MSYRRELEKYRDLDEDEILGALTEEELRTLENELDELDPDNALLPAGLRQKDQTTKAPTGPFKREELLDHLEKQAKEFKDREDLVPYTGEKRGKVWVPKQKPLDPVLESVTLEPELEEALANASDAELCDIAAILGMHTLMSNQQYYQALSSSSIMNKEGLNSVIKPTQYKPVPDEEPNSTDVEETLERIKNNDPKLEEVNLNNIRNIPIPTLKAYAEALKENSYVKKFSIVGTRSNDPVAYALAEMLKENKVLKTLNVESNFISGAGILRLVEALPYNTSLVEMKIDNQSQPLGNKVEMEIVSMLEKNATLLKFGYHFTQQGPRLRASNAMMNNNDLVRKRRLADLTGPIIPKCRSGV
Question: With B3 as the binder, how does the Kd [3] read?
Answer: The Kd was 15000 nM.

B4: Lmod2_(ABS2) (domain or fragment)
chain: NGRNTESPAAIHPCGNPTVIEDALDKIKSNDPDTTEVNLNNIENITTQTLTRFAEALKDNTVVKTFSLANTHADDSAAMAIAEMLKVNEHITNVNVESNFITGKGILAIMRALQHNTVLTELRFHNQRHIMGSQVEMEIVKLLKENTTLLRLGYHFELPGPRMSMTSILTRNMDKQRQKRLQEQKQQE
Question: Which Kd [1] does the source give for B4 here?
Answer: Its Kd is 1700 nM.
